Measurements taken from patent EP4663662A1.
Like-named read-outs stand apart in the source and are kept apart here. Values belong to the substance of their own block, whether it stands above or below them.

What was measured:
[1] = target: human BCMA (human) (UniProt Q02223); test: flow cytometry, human BCMA-CHOK1 cells; control
[2] = target: human BCMA (human) (UniProt Q02223); test: flow cytometry, human BCMA-CHOK1 cells; control; remark: listed apart in the source
[3] = target: cynomolgus monkey GPRC5D (cynomolgus monkey); test: flow cytometry, cynomolgus GPRC5D-CHOK1 cells; control
[4] = target: human GPRC5D (human) (UniProt Q9NZD1); test: flow cytometry, NCI-H929 cells; control
[5] = target: cynomolgus monkey BCMA (cynomolgus monkey); test: flow cytometry, cynomolgus BCMA-CHOK1 cells; control
[6] = target: human GPRC5D (human) (UniProt Q9NZD1); test: flow cytometry, human GPRC5D-CHOK1 cells; control
[7] = target: cynomolgus monkey GPRC5D (cynomolgus monkey); test: flow cytometry, cynomolgus GPRC5D-CHOK1 cells; control; remark: listed apart in the source
[8] = target: cynomolgus monkey BCMA (cynomolgus monkey); test: flow cytometry, cynomolgus BCMA-CHOK1 cells; control; remark: listed apart in the source
[9] = target: human CD3 on cells (Jurkat cells, human PBMCs) (human) (UniProt P07766); test: flow cytometry, Jurkat cells
[10] = target: soluble BCMA (UniProt Q02223); test: cell-based or functional assay
[11] = target: human CD3 on cells (Jurkat cells, human PBMCs) (human) (UniProt P07766); test: flow cytometry, human PBMCs
[12] = target: human BCMA (human) (UniProt Q02223); test: flow cytometry, NCI-H929 cells (express BCMA and GPRC5D)
[13] = target: human CD3 protein (Acro, Cat. No. CDD-H52W1) (human) (UniProt P07766); test: SPR (Biacore), CD3 immobilised on CM5, antibody as analyte, 1:1 fit
[14] = target: cynomolgus monkey CD3 protein (Acro, Cat. No. CDD-C52W4) (cynomolgus monkey) (UniProt Q95LI5); test: as above
[15] = target: human BCMA protein (Acro, Cat. No. BCA-H522y) (human) (UniProt Q02223); test: SPR (Biacore), antibody captured by anti-human IgG Fc, BCMA as analyte, 1:1 fit
[16] = target: cynomolgus monkey BCMA protein (Acro, Cat. No. BCA-C52H7) (cynomolgus monkey); test: as above
[17] = target: cynomolgus monkey CD3 on cyno PBMCs (cynomolgus monkey) (UniProt Q95LI5); test: flow cytometry, cyno PBMCs
[18] = target: cynomolgus monkey BCMA (cynomolgus monkey); test: flow cytometry, cynomolgus BCMA-CHOK1 cells
[19] = target: human GPRC5D (human) (UniProt Q9NZD1); test: flow cytometry, human GPRC5D-CHOK1 cells
[20] = target: human BCMA (human) (UniProt Q02223); test: flow cytometry, RPMI8226 cells (express BCMA and GPRC5D)
[21] = target: human BCMA (human) (UniProt Q02223); test: flow cytometry, human BCMA-CHOK1 cells
[22] = target: dual targets human BCMA and human GPRC5D on tumor cells (NCI-H929, RPMI8226) (human); test: flow cytometry, NCI-H929 cells (express BCMA and GPRC5D); negative control
[23] = target: human BCMA (human) (UniProt Q02223); test: flow cytometry, human BCMA-CHOK1 cells; negative control
[24] = target: cynomolgus monkey CD3 on cyno PBMCs (cynomolgus monkey) (UniProt Q95LI5); test: flow cytometry, cyno PBMCs; negative control
[25] = target: human GPRC5D (human) (UniProt Q9NZD1); test: flow cytometry, human GPRC5D-CHOK1 cells; negative control
[26] = target: dual targets human BCMA and human GPRC5D on tumor cells (NCI-H929, RPMI8226) (human); test: flow cytometry, RPMI8226 cells (express BCMA and GPRC5D); negative control
[27] = target: human CD3 on cells (Jurkat cells, human PBMCs) (human) (UniProt P07766); test: flow cytometry, Jurkat cells; negative control
[28] = target: human CD3 on cells (Jurkat cells, human PBMCs) (human) (UniProt P07766); test: flow cytometry, human PBMCs; negative control

Chain of cynomolgus monkey BCMA (cynomolgus monkey) (Q02223 other isoform, or with tags, fused parts or gaps): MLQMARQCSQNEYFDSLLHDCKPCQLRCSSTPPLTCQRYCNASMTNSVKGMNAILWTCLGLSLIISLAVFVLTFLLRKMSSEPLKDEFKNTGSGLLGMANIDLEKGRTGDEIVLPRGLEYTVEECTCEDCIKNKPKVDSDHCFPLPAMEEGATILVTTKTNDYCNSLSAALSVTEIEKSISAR
Chain of human BCMA protein (Acro, Cat. No. BCA-H522y) (human) (Q02223 1-54 limits assumed): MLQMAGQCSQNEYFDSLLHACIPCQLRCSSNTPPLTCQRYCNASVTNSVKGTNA
Chain of human CD3 on cells (Jurkat cells, human PBMCs) (human) (P07766 23-207): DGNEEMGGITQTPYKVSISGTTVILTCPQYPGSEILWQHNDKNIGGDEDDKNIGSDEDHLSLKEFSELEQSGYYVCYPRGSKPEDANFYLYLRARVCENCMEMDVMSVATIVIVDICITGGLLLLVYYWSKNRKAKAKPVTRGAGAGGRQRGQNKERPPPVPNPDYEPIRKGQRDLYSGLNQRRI
Chain of cynomolgus monkey CD3 protein (Acro, Cat. No. CDD-C52W4) (cynomolgus monkey) (Q95LI5 22-117): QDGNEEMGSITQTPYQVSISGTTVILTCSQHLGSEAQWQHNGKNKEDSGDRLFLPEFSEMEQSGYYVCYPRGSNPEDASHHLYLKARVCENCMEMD
Chain of human BCMA (human) (Q02223 whole entry): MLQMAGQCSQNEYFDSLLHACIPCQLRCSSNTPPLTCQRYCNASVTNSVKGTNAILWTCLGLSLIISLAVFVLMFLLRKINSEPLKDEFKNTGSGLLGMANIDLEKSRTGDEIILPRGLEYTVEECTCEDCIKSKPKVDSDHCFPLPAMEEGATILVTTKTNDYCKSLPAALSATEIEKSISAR
Chain of human CD3 protein (Acro, Cat. No. CDD-H52W1) (human) (P07766 23-126): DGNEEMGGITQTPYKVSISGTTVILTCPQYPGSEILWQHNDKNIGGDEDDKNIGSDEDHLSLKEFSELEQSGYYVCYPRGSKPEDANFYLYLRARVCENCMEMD
Chain of human GPRC5D (human) (Q9NZD1 whole entry): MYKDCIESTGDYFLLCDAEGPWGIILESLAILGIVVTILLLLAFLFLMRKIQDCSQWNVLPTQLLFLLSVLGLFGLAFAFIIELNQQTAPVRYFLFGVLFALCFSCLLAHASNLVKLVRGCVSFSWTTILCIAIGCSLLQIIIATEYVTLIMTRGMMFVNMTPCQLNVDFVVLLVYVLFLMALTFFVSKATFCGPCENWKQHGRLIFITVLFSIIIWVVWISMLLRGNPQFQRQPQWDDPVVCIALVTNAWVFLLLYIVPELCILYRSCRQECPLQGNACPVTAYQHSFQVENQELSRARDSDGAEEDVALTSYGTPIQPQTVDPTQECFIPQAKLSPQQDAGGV
Chain of cynomolgus monkey CD3 on cyno PBMCs (cynomolgus monkey) (Q95LI5 22-198): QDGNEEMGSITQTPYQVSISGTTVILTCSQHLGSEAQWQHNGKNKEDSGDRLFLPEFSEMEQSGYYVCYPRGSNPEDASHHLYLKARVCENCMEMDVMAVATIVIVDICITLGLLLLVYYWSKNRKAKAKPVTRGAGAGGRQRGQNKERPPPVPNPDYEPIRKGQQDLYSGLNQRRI
Chain of soluble BCMA (Q02223 1-54 limits assumed): as the sequence (Q02223 1-54 limits assumed) above
Chain of cynomolgus monkey GPRC5D (cynomolgus monkey) (Q9NZD1 other isoform, or with tags, fused parts or gaps): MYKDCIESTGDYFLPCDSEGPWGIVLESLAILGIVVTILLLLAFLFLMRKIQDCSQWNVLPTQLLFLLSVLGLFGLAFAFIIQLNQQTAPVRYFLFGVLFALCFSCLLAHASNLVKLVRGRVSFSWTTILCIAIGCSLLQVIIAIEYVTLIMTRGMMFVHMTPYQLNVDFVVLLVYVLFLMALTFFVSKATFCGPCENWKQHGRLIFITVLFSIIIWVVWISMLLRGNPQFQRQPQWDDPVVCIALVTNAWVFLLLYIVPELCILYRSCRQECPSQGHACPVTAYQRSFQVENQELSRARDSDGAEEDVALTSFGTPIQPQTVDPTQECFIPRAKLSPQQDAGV
Chain of dual targets human BCMA and human GPRC5D on tumor cells (NCI-H929, RPMI8226) (human) (chain, as listed by the source, chain 1 of 2): as the sequence (Q02223 whole entry) above
Chain of dual targets human BCMA and human GPRC5D on tumor cells (NCI-H929, RPMI8226) (human) (chain, as listed by the source, chain 2 of 2): as the sequence (Q9NZD1 whole entry) above

Top MFI [1]: 232 MFI
Top MFI [2]: 89.1 MFI
Top MFI [3]: 1840 MFI
Top MFI [4]: 178 MFI
Top MFI [5]: 82.6 MFI
Top MFI [6]: 36 MFI
Top MFI [7]: 85 MFI
Top MFI [8]: 382 MFI
Substance: IgG1 AA (antibody)

Substance: Teclistamab analogue (BCMA/CD3) (bispecific antibody)
EC50 [9]: 3.22 nM
Top MFI [9]: 825 MFI
Ratio (EC50) of TDCC on NCI-H929, 2.5 ug/ml BCMA against 0 ug/ml BCMA [10]: 21 fold
fold change of TDCC EC50 on NCI-H929 in the presence of 2500 ng/ml soluble BCMA [10]: 25 fold
EC50 [11]: 6.06 nM
Top MFI [11]: 672 MFI
EC50 [12]: 2.43 nM
Top MFI [12]: 669 MFI
Kd [13]: 21 nM
koff [13]: 0.00522 s⁻¹
kon [13]: 248000 M⁻¹ s⁻¹
Kd [14]: 21.1 nM
koff [14]: 0.00336 s⁻¹
kon [14]: 159000 M⁻¹ s⁻¹
Kd [15]: 0.379 nM
koff [15]: 0.00135 s⁻¹
kon [15]: 3.55e+06 M⁻¹ s⁻¹
Kd [16]: 8.49 nM
koff [16]: 0.0235 s⁻¹
kon [16]: 2.77e+06 M⁻¹ s⁻¹
EC50 [17]: 55.8 nM
Top MFI [17]: 2060 MFI
EC50 [18]: 15.3 nM
Top MFI [18]: 1770 MFI
Top MFI [19]: 160 MFI
EC50 [20]: 1.17 nM
Top MFI [20]: 169 MFI
EC50 [21]: 2.63 nM
Top MFI [21]: 2280 MFI

Kd [13]: 18 nM
koff [13]: 0.00201 s⁻¹
kon [13]: 112000 M⁻¹ s⁻¹
Kd [14]: 22.2 nM
koff [14]: 0.00379 s⁻¹
kon [14]: 170000 M⁻¹ s⁻¹
Substance: Talquetamab analogue (GPRC5D/CD3) (bispecific antibody)

Top MFI [22]: 104 MFI
Top MFI [23]: 119 MFI
Top MFI [24]: 93.3 MFI
Top MFI [25]: 100 MFI
Top MFI [26]: 112 MFI
Top MFI [27]: 77.6 MFI
Top MFI [28]: 96.1 MFI
Substance: hIgG1 LALA isotype (Biointron, Cat. No. B109802) (antibody)
